From patent US6355785

Key:
[1] = biological target: HIV-1 gp120 (Human immunodeficiency virus 1) (UniProt P04578); assay: competition; details: ID50 for gp120, gp120-CD4 interaction
[2] = biological target: T1, SIV integrase (Simian immunodeficiency virus) (UniProt P05897); assay: inhibition; details: PS at first and last internucleoside linkages (pPT), 3'-OH; 3'-processing
T1 sequence: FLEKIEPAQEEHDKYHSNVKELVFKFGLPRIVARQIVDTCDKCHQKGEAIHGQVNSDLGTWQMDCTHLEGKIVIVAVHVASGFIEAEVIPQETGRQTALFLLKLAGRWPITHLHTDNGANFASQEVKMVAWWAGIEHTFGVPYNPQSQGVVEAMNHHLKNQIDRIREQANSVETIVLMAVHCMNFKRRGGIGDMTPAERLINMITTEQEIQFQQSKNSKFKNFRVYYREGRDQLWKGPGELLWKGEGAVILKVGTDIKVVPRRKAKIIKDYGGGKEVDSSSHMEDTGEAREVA

[3] = biological target: HIV-1 integrase wild-type (IN1-288) (Human immunodeficiency virus 1) (UniProt P12497); assay: inhibition; details: I, 3'-processing

GATCCATGTCAGTGACAC [1231 random GATC] showed an IC50 ([1]; phosphodiester, 3'-amine) greater than 100000 nM.

GATCCATGTCAGTGACAC [1232 random GATC] showed an IC50 ([1]; PS all linkages, 3'-amine) greater than 10000 nM.

For GGGTGGGTGGGTGGGTGG [1173], the IC50 ([1]; phosphodiester, 3'-amine) was greater than 100000 nM.

GGGTGGGTGGGTGGGTGG [1174] was tested, and the IC50 ([1]; PS all linkages, 3'-amine) was 90 nM.

For GTGGTGGGTGGGTGGGT [T30177 (AR177)], the IC50 [2] was 420 nM.

Sequence “GTGGTGGGTGGGTGGGTGGTGGGTGGTGGTTGTGGGTGGGTGGTG [I100-07]” has an IC50 ([1]; phosphodiester, 3'-amine) of 800 nM.

“GTGGTGGGTGGGTGGGTGGTGGGTGGTGGTTGTGGGTGGGTGGTG [I100-21]” was tested, and the IC50 ([1]; PS all linkages, 3'-amine) was 70 nM.

GTTGGGGGTTGTTGGTGGGGTGGTGG [I100-00] was tested, and the IC50 ([1]; phosphodiester, 3'-propanolamine) was 3500 nM.

For GTTGGGGGTTGTTGGTGGGGTGGTGG [I100-12], the IC50 ([1]; PS all linkages, 3'-amine) was 80 nM.

Sequence “TCTTCCTCTCTCTACCCACGCTCIC [T30531 antisense GEM91 variant PT]” has an IC50 ([3]; PS all linkages, strand transfer 0.036) of 30 nM.

“TCTTCCTCTCTCTACCCACGCTCIC [T30658 antisense GEM91 variant PD]” was tested, and the IC50 ([3]; all phosphodiester, strand transfer >0.5) was greater than 500 nM.

Work on “TCTTCCTCTCTCTACCCACGCTCIC [T30662 antisense GEM91 variant pPT]” yielded an IC50 ([3]; PS at first and last linkages (pPT), strand transfer >0.5) greater than 500 nM.
